For 54 substances, amyloid nucleation score results are on record in the supplement of paper PMC12042874.

± gives the uncertainty stated by the source.

The data set in a line: amyloid nucleation score (Sup35N fusion, yeast selection) (log enrichment); library NNK3; higher = more nucleation; inactive = no reads after selection. In outline: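 Psi-negative yeast expressed Sup35N fused to peptides of 20 random codons. They were induced 24 hours with 100 μM copper sulfate, grown 7 days at 30°C without adenine and uracil, and their plasmid inserts from input and output were Illumina-sequenced. The nucleation score is the DiMSum log enrichment of output over input reads, centred on the mode score of non-aggregating sequences. Sequences with under 100 input reads were excluded.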
With DSLIVCTVPHGLDVVSTRRV, the amyloid nucleation score result was “inactive”.

On to DSLKIR, for which the amyloid nucleation score entry was “inactive”.

Take DSLSDLLYSFKFKG: the amyloid nucleation score entry is “inactive”.

Consider DSLTDVMTWELWDIYHVKHE, for which the amyloid nucleation score result is “inactive”.

In the case of DSPRGV, the amyloid nucleation score result was “inactive”.

As to DSTEVRYQNPMTTLRGVVFW, the amyloid nucleation score result is “inactive”.

In the case of DTFACCPRWNLCGENTLPYI, the amyloid nucleation score was 2.33 ± 0.06.

On to DTGLAESQGMN, for which the amyloid nucleation score entry is “inactive”.

As for DTLLRKFWVIIVIGTALGSM, the amyloid nucleation score entry was “inactive”.

With DTWRMFWPLVVLNCADGAPG, the amyloid nucleation score result is “inactive”.

As for DVFHSCLAQFILYTP, the amyloid nucleation score result is “inactive”.

Regarding DVGTCSLLNGHKYFFRFNVV, the amyloid nucleation score result was “inactive”.

In the case of DVMSEFLFKYWVVNQQCFTR, the amyloid nucleation score entry is “inactive”.

DVSYYERGSSVHYTHSD: the amyloid nucleation score entry is “inactive”.

Turning to DWRAVLLGITSFA, the amyloid nucleation score entry is “inactive”.

On to DWTGNMGDNHSTRVFRRKRD, for which the amyloid nucleation score result is “inactive”.

Turning to DWYIVRMARCG, the amyloid nucleation score was 0.984 ± 0.12.

DYIEGLECVFRDPARIFLWG: the amyloid nucleation score is -0.226 ± 1.1.

DYNILQSRMSYRAYMCSLHV: the amyloid nucleation score entry is “inactive”.

DYTPGGCRPTTNCLS: the amyloid nucleation score entry was “inactive”.

For the substance DYYTVCQAWIYIGFAILKW, the amyloid nucleation score result was “inactive”.

As for EAEGNINTRGTHRCLYGSFK, the amyloid nucleation score result is “inactive”.

In the case of EAYEAQD, the amyloid nucleation score entry is “inactive”.

For the substance ECATTVGNAFRRSGVQVFAM, the amyloid nucleation score entry was “inactive”.

With ECEWDMVH, the amyloid nucleation score entry is “inactive”.

Consider ECHRGDHINDYVRADNRFSL, for which the amyloid nucleation score result was “inactive”.

Take ECPAALLKKIVPYKKLHGRM: the amyloid nucleation score entry is “inactive”.

Regarding EDHFSLHACVSSGTLSKVVY, the amyloid nucleation score entry was “inactive”.

As for EDIGGCECRYSIKDVY, the amyloid nucleation score entry was “inactive”.

Turning to EDLMLVQF, the amyloid nucleation score entry was “inactive”.

EDYLFHLLRDPRRTGWLIWF: the amyloid nucleation score result was “inactive”.

Substance EEMVSDRVRMLVTINHR displayed an amyloid nucleation score of 0.661 ± 0.27.

EEVAGSTYIISSVVVYSRAG displayed an amyloid nucleation score of 1.57 ± 0.14.

EFLESMNFVVTFLRWIQWTN: the amyloid nucleation score result was “inactive”.

In the case of EFMILDLCMG, the amyloid nucleation score result was “inactive”.

For EFNNFYFCFFTV, the amyloid nucleation score was determined as 2.71 ± 0.064.

EFQNISWYTKLEGEYCGEMV: the amyloid nucleation score entry was “inactive”.

For EGILPYLRYLFRNLSVGCCW, the amyloid nucleation score entry is “inactive”.

With EGTKEF, the amyloid nucleation score entry is “inactive”.

As to EGTRLTSYM, the amyloid nucleation score result was “inactive”.

For EHGMVENRQRRFCLDWWDGM, the amyloid nucleation score entry is “inactive”.

In the case of EHVWHRCTKVN, the amyloid nucleation score result is “inactive”.

On to EIFVFTM, for which the amyloid nucleation score entry is “inactive”.

As to EIGYYFNFKRLGAS, the amyloid nucleation score result is “inactive”.

For EIIFLS, the amyloid nucleation score entry is “inactive”.

Turning to EIRKQHCCHS, the amyloid nucleation score entry was “inactive”.

EIRMRMIKRFVYD showed an amyloid nucleation score of 1.16 ± 0.17.

As to EIVYCPWLQSWRA, the amyloid nucleation score entry was “inactive”.

For EKDISAAMRMHGR, the amyloid nucleation score was -0.315 ± 0.9.

For EKECRTWHHVDGSLVESCYY, the amyloid nucleation score result is “inactive”.

ELDCELMIALFLLWIVHANG returned an amyloid nucleation score of -0.657 ± 0.93.

As for ELIAIRRSNFHKKFLLNLYC, the amyloid nucleation score entry is “inactive”.

ELISGLLRVGLDLKKAVSFD: the amyloid nucleation score entry is “inactive”.

Regarding ELISRMSFRSLCLAFFISVC, the amyloid nucleation score result is “inactive”.
